# Experimental data: patent US20260049138A1 (Chugai, published 2026)
# Numbering of substitutions follows the chain as printed. Names and notes keep the numbering of the source.
# B1: GLS3000 F55I one-arm antibody (antibody, human IgG1, kappa, L234A L235A, N297A, name in Kabat numbering)
# heavy: QVQLVESGGGVVQPGRSLRLSCAASGFTFSNAWMHWVRQAPGKGLEWVAQIKAKSNNYATYYAESVKGRFTISRDDSKNSLYLQMNSLKTEDTAVYYCRYVHYGAYYGVDAWGQGTTVTVSSASTKGPSVFPLAPSSKSTSGGTAALGCLVKDYFPEPVTVSWNSGALTSGVHTFPAVLQSSGLYSLSSVVTVPSSSLGTQTYICNVNHKPSNTKVDKKVEPKSCDKTHTCPPCPAPEAAGGPSVFLFPPKPKDTLMISRTPEVTCVVVDVSHEDPEVKFNWYVDGVEVHNAKTKPREEQYASTYRVVSVLTVLHQDWLNGKEYKCKVSNKALPAPIEKTISKAKGQPREPQVYTLPPSRCELTKNQVSLSCAVKGFYPSDIAVEWESNGQPENNYKTTPPVLDSDGSFFLVSKLTVDKSRWQQGNVFSCSVMHEALHNHYTQKSLSLSPDYKDDDDK
# chain: EPKSSDKTHTCPPCPAPELLGGPSVFLFPPKPKDTLMISRTPEVTCVVVDVSHEDPEVKFNWYVDGVEVHNAKTKPREEQYNSTYRVVSVLTVLHQDWLNGKEYKCKVSNKALPAPIEKTISKAKGQPREPQVCTLPPSRDELTKNQVSLWCLVKGFYPSDIAVEWESNGQPENNYKTTPPVLDSDGSFFLYSKLTVDKSRWQQGNVFSCSVMHEALHNRYTQKSLSLSP
# light: DIVMTQSPLSLPVTPGEPASISCRSSQSLVHSNRNTYLHWYQQKPGQAPRLLIYKVSNRISGVPDRFSGSGSGTDFTLKISRVEAEDVGVYYCGQGTQVPYTFGQGTKLEIKRTVAAPSVFIFPPSDEQLKSGTASVVCLLNNFYPREAKVQWKVDNALQSGNSQESVTEQDSKDSTYSLSSTLTLSKADYEKHKVYACEVTHQGLSSPVTKSFNRGEC
# B2: GLS3000 G89D one-arm antibody (antibody, human IgG1, kappa, L234A L235A, N297A, name in Kabat numbering)
# heavy: B1 heavy
# chain: B1 chain
# light: B1 light with I60F, G94D
# B3: GLS3000 G89W one-arm antibody (antibody, human IgG1, kappa, L234A L235A, N297A, name in Kabat numbering)
# heavy: B1 heavy
# chain: B1 chain
# light: B1 light with I60F, G94W
# B4: GLS3000 G89T one-arm antibody (antibody, human IgG1, kappa, L234A L235A, N297A, name in Kabat numbering)
# heavy: B1 heavy
# chain: B1 chain
# light: B1 light with I60F, G94T
# B5: GLS3000 F55T one-arm antibody (antibody, human IgG1, kappa, L234A L235A, N297A, name in Kabat numbering)
# heavy: B1 heavy
# chain: B1 chain
# light: B1 light with I60T
# B6: GLS3000 F55Q one-arm antibody (antibody, human IgG1, kappa, L234A L235A, N297A, name in Kabat numbering)
# heavy: B1 heavy
# chain: B1 chain
# light: B1 light with I60Q
# B7: GLS3000 G89F one-arm antibody (antibody, human IgG1, kappa, L234A L235A, N297A, name in Kabat numbering)
# heavy: B1 heavy
# chain: B1 chain
# light: B1 light with I60F, G94F
# B8: GLS3000 G91D one-arm antibody (antibody, human IgG1, kappa, L234A L235A, N297A, name in Kabat numbering)
# heavy: B1 heavy
# chain: B1 chain
# light: B1 light with I60F, G96D
# B9: GLS3000 G89R one-arm antibody (antibody, human IgG1, kappa, L234A L235A, N297A, name in Kabat numbering)
# heavy: B1 heavy
# chain: B1 chain
# light: B1 light with I60F, G94R
# B10: GLS3000 G89M one-arm antibody (antibody, human IgG1, kappa, L234A L235A, N297A, name in Kabat numbering)
# heavy: B1 heavy
# chain: B1 chain
# light: B1 light with I60F, G94M
# B11: GLS3000 G89H one-arm antibody (antibody, human IgG1, kappa, L234A L235A, N297A, name in Kabat numbering)
# heavy: B1 heavy
# chain: B1 chain
# light: B1 light with I60F, G94H
# B12: GLS3000 G89I one-arm antibody (antibody, human IgG1, kappa, L234A L235A, N297A, name in Kabat numbering)
# heavy: B1 heavy
# chain: B1 chain
# light: B1 light with I60F, G94I
# B13: GLS3000 F55V one-arm antibody (antibody, human IgG1, kappa, L234A L235A, N297A, name in Kabat numbering)
# heavy: B1 heavy
# chain: B1 chain
# light: B1 light with I60V
# B14: GLS3000 F55W one-arm antibody (antibody, human IgG1, kappa, L234A L235A, N297A, name in Kabat numbering)
# heavy: B1 heavy
# chain: B1 chain
# light: B1 light with I60W
# B15: GLS3000 G89V one-arm antibody (antibody, human IgG1, kappa, L234A L235A, N297A, name in Kabat numbering)
# heavy: B1 heavy
# chain: B1 chain
# light: B1 light with I60F, G94V
# B16: GLS3000 G89L one-arm antibody (antibody, human IgG1, kappa, L234A L235A, N297A, name in Kabat numbering)
# heavy: B1 heavy
# chain: B1 chain
# light: B1 light with I60F, G94L
# B17: GLS3000 G89P one-arm antibody (antibody, human IgG1, kappa, L234A L235A, N297A, name in Kabat numbering)
# heavy: B1 heavy
# chain: B1 chain
# light: B1 light with I60F, G94P
# B18: GLS3000 G89E one-arm antibody (antibody, human IgG1, kappa, L234A L235A, N297A, name in Kabat numbering)
# heavy: B1 heavy
# chain: B1 chain
# light: B1 light with I60F, G94E
# B19: GLS3000 F55L one-arm antibody (antibody, human IgG1, kappa, L234A L235A, N297A, name in Kabat numbering)
# heavy: B1 heavy
# chain: B1 chain
# light: B1 light with I60L
# B20: GLS3000 F55Y one-arm antibody (antibody, human IgG1, kappa, L234A L235A, N297A, name in Kabat numbering)
# heavy: B1 heavy
# chain: B1 chain
# light: B1 light with I60Y
# B21: GLS3000 G89N one-arm antibody (antibody, human IgG1, kappa, L234A L235A, N297A, name in Kabat numbering)
# heavy: B1 heavy
# chain: B1 chain
# light: B1 light with I60F, G94N
# B22: GLS3000 G91A one-arm antibody (antibody, human IgG1, kappa, L234A L235A, N297A, name in Kabat numbering)
# heavy: B1 heavy
# chain: B1 chain
# light: B1 light with I60F, G96A
# B23: GLS3000 G89A one-arm antibody (antibody, human IgG1, kappa, L234A L235A, N297A, name in Kabat numbering)
# heavy: B1 heavy
# chain: B1 chain
# light: B1 light with I60F, G94A
# B24: GLS3000 G89K one-arm antibody (antibody, human IgG1, kappa, L234A L235A, N297A, name in Kabat numbering)
# heavy: B1 heavy
# chain: B1 chain
# light: B1 light with I60F, G94K
# B25: GLS3000 F55R one-arm antibody (antibody, human IgG1, kappa, L234A L235A, N297A, name in Kabat numbering)
# heavy: B1 heavy
# chain: B1 chain
# light: B1 light with I60R
# B26: GLS3000 F55M one-arm antibody (antibody, human IgG1, kappa, L234A L235A, N297A, name in Kabat numbering)
# heavy: B1 heavy
# chain: B1 chain
# light: B1 light with I60M
# B27: GLS3000 G89Y one-arm antibody (antibody, human IgG1, kappa, L234A L235A, N297A, name in Kabat numbering)
# heavy: B1 heavy
# chain: B1 chain
# light: B1 light with I60F, G94Y
# B28: GLS3000 G89Q one-arm antibody (antibody, human IgG1, kappa, L234A L235A, N297A, name in Kabat numbering)
# heavy: B1 heavy
# chain: B1 chain
# light: B1 light with I60F, G94Q
# B29: GLS3000 F55N one-arm antibody (antibody, human IgG1, kappa, L234A L235A, N297A, name in Kabat numbering)
# heavy: B1 heavy
# chain: B1 chain
# light: B1 light with I60N
# B30: GLS3000 F55S one-arm antibody (antibody, human IgG1, kappa, L234A L235A, N297A, name in Kabat numbering)
# heavy: B1 heavy
# chain: B1 chain
# light: B1 light with I60S
# B31: GLS3000 F55P one-arm antibody (antibody, human IgG1, kappa, L234A L235A, N297A, name in Kabat numbering)
# heavy: B1 heavy
# chain: B1 chain
# light: B1 light with I60P
# B32: GLS3000 F55K one-arm antibody (antibody, human IgG1, kappa, L234A L235A, N297A, name in Kabat numbering)
# heavy: B1 heavy
# chain: B1 chain
# light: B1 light with I60K
# Molecular target: T1, CD3ε homodimer protein (human, UniProt P07766 23-126, limits assumed)
# T1 construct: also called CD3 (CD3ε)
# Experiment: SPR Biacore T200, CD3ε homodimer on chip;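 also: Light-chain single-residue variant antibodies injected over amine-coupled CD3ε homodimer on a CM4 chip at 25 °C, bound amount divided by that of the GLS3000-containing antibody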
# T1 sequence (P07766 23-126 limits assumed): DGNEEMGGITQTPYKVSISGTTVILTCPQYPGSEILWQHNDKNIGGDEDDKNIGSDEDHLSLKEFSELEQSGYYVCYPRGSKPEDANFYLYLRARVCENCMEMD
row,Binder,ratio of amount bound vs unaltered GLS3000
1,B1,0.82
2,B2,0.33
3,B3,0.5
4,B4,1.03
5,B5,0.41
6,B6,0.91
7,B7,1.09
8,B8,0.16
9,B9,0.19
10,B10,0.52
11,B11,0.7
12,B12,1.07
13,B13,0.71
14,B14,0.69
15,B15,1.63
16,B16,0.94

row,Binder,ratio of amount bound vs unaltered GLS3000
1,B17,0.35
2,B18,0.26
3,B19,0.76
4,B20,0.92
5,B21,0.8
6,B22,0.27
7,B23,1.13
8,B24,0.4
9,B25,1.31
10,B26,0.8
11,B27,1.19
12,B28,0.38
13,B29,0.98
14,B30,0.69
15,B31,1.16
16,B32,1.33
